From publication PMC11629607, “Nanobodies against the myelin enzyme CNPase as tools for structural and functional studies” (Journal of Neurochemistry, 2024)
Like-named read-outs stand apart in the source and are kept apart here.

Legend:
full-length mouse CNPase [1] = target: T1, full-length mouse CNPase (Mus musculus (mouse), UniProt P16330); assay: enzyme inhibition kinetics (Dixon plot); apparent Ki; 2′,3′-cNADP+ hydrolysis by full-length mCNPase, coupled assay; 100 mM Bis-Tris pH 6.0, 10 mM MgCl2; +25°C; settings: both partners purified
T1 construct: 2′,3′-cyclic nucleotide 3′-phosphodiesterase (CNPase), mouse, full-length; also called mCNPase; full-length mCNPase; source: E. coli Rosetta (DE3), pTH27 vector, autoinduction, purified (SEC)

[2] = target: T2, mouse CNPase catalytic domain (mouse, UniProt P16330); assay: ITC; 8.5–11 μM CNPase catalytic domain in the cell, 88–95 μM Nb in the syringe; 20 mM HEPES, 150 mM NaCl, 0.5 mM TCEP, pH 7.5; +25°C; 1:1 binding model; single experiments
T2 construct: 2′,3′-cyclic nucleotide 3′-phosphodiesterase (CNPase), mouse, catalytic (C-terminal phosphodiesterase) domain; As used in ITC, crystallisation and SEC-SAXS; also called mCNPase catalytic domain; C-terminal phosphodiesterase domain; source: E. coli Rosetta (DE3), pTH27 vector, autoinduction, purified (SEC)

full-length mouse CNPase [3] = target: T1, full-length mouse CNPase; assay: DSF thermal shift (SYPRO-Orange); full-length CNPase with Nb; 20 mM HEPES, 150 mM NaCl, 0.5 mM TCEP, pH 7.5; 20–95°C; N = 3; settings: both partners purified
[4] = target: T3, TOM70-EGFP-CNPase-ALFAtag (Mus musculus (assumed)); assay: recruitment to a mitochondria-anchored target (co-localisation by confocal microscopy); COS-7 cells co-transfected with TOM70-EGFP-CNPase and an iNb fused to mRuby3; fixed ca. 16 h after transfection; Pearson's correlation, N = 9 cells; settings: partners not purified
T3 construct: 2′,3′-cyclic nucleotide 3′-phosphodiesterase (CNPase), catalytic domain; also called TOM70‐EGFP‐CNPase (catalytic domain); CNPase anchored to mitochondria; source: COS-7, co-transfected (pcDNA3.1, synthetic gene), in cells; not shown: TOM70 (anchor to the mitochondrial outer membrane), N-terminal, kept; EGFP, internal (between TOM70 and CNPase), kept
T3 chain: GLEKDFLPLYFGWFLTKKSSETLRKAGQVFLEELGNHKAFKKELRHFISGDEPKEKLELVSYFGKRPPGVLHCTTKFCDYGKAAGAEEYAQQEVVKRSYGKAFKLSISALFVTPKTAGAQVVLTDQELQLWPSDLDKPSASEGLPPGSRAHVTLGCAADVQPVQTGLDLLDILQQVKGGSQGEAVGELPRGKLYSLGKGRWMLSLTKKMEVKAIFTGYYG

[5] = target: T2, mouse CNPase catalytic domain; assay: SEC-SAXS; Nb mixed with the CNPase catalytic domain in 1.3-fold molar excess; 20 mM HEPES, 150 mM NaCl, 0.5 mM TCEP, pH 7.5
full-length mouse CNPase [6] = target: T1, full-length mouse CNPase; assay: nanoDSF thermal shift (Trp fluorescence); complex prepared by SEC, 2 mg/mL; 20 mM HEPES, 200 mM NaCl, 0.5 mM TCEP, pH 7.5; settings: both partners purified

T1 sequence (P16330 whole entry): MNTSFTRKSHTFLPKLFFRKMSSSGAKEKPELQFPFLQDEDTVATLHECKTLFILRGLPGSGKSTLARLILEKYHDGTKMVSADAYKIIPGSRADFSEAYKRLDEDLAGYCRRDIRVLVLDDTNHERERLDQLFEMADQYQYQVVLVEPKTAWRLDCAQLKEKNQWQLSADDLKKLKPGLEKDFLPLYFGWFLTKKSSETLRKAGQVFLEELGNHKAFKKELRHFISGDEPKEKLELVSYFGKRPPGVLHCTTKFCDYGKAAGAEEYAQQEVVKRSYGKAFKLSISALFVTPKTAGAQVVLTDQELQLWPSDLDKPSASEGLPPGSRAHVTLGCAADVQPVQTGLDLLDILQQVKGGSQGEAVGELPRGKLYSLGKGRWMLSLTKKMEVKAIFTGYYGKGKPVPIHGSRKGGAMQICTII

B1: anti-CNPase nanobody NbCNP 10E (VHH)
VHH: EVQLEESGGGLVQPGGSLRLSCAVSGITLDDFGIGWFRQAPGKEREGVACISPGYEHIYYADSAKGRFTISRDNAKNTVYLQMNNLKPWDTGVYYCAADNDLPDRLWGGSDWSDPSPYDYWGQGTQVTVSS
notes: Purified as described for anti-Arc Nbs (Markusson et al., 2022); source: E. coli, pTH27 vector, purified (SEC, TEV, reverse NiNTA, SEC); not shown: His6, N-terminal, cleaved
Work on B1 yielded a Ki (full-length mouse CNPase [1]) of 0.604 nM, a Kd ([2]; both partners purified) of 9.8 nM and a dH ([2]; both partners purified) of -12.1 kcal/mol. For the same binder, the “stoichiometry N” value ([2]; both partners purified) was 0.804 and the “∆Tm” value (full-length mouse CNPase [3]) was 4.2 °C.

B2: MaBP-10E (His6-maltose-binding protein fusion of NbCNP 10E) (VHH)
VHH: EVQLEESGGGLVQPGGSLRLSCAVSGITLDDFGIGWFRQAPGKEREGVACISPGYEHIYYADSAKGRFTISRDNAKNTVYLQMNNLKPWDTGVYYCAADNDLPDRLWGGSDWSDPSPYDYWGQGTQVTVSS
notes: as the VHH of m9; source: E. coli Shuffle T7, pHMGWA vector, purified; not shown: His6, N-terminal, kept
For B2, the Kd ([2]; both partners purified) was 13.4 nM, the dH ([2]; both partners purified) was -18.1 kcal/mol and the “stoichiometry N” value ([2]; both partners purified) was 0.836.

B3: iNbCNP 10E fused to mRuby3 (VHH)
VHH: EVQLEESGGGLVQPGGSLRLSCAVSGITLDDFGIGWFRQAPGKEREGVACISPGYEHIYYADSAKGRFTISRDNAKNTVYLQMNNLKPWDTGVYYCAADNDLPDRLWGGSDWSDPSPYDYWGQGTQVTVSS
notes: as the VHH of m9; also called NbCNP 10E-mRuby3; source: COS-7, co-transfected, in cells; not shown: mRuby3, C-terminal, kept
B3: binds [4].

B4: anti-CNPase nanobody NbCNP 7E (VHH)
VHH: EVQLEESGGGWVHPGGSLRLSCAASGNVFGVNTMAWYRQAPGKQREQRELVASITDYGTTEYADSVKGRFTISGDNAKATVYLQMNSLKPEDTAVYYCNMDLTVMTATSSLYAYDYWGQGTQVTVSS
notes: source: E. coli Shuffle T7, His6-MaBP fusion (pHMGWA), purified (NiNTA, TEV, reverse NiNTA, SEC); not shown: His6, N-terminal, cleaved
For B4, the Kd ([2]; both partners purified) was 83.3 nM, the dH ([2]; both partners purified) was -14.2 kcal/mol and the “stoichiometry N” value ([2]; both partners purified) was 0.863. The “stoichiometry N” value ([5]; both partners purified) was 1 and the “∆Tm” value (full-length mouse CNPase [3]) was 2.1 °C.

B5: anti-CNPase nanobody NbCNP 8C (VHH)
VHH: EVQLEESGGGLVQAGGSLTLSCAASGFTFDDYAMGWYRQAPGKERVGVSCISRTDGYTYYLDSVKGRFTISTDHAKHTVYLQMNNLKPDDTGLYYCAADADPEYGSRCPDPYYGMDYWGKGILVTVSS
notes: Extra disulphide between CDR2 and CDR3; source: E. coli Shuffle T7, His6-MaBP fusion (pHMGWA), purified (NiNTA, TEV, reverse NiNTA, SEC); not shown: His6, N-terminal, cleaved
B5 was tested, and the Kd ([2]; both partners purified) was 16.6 nM, the dH ([2]; both partners purified) was -7.07 kcal/mol and the “stoichiometry N” value ([2]; both partners purified) was 0.914. The “stoichiometry N” value ([5]; both partners purified) was 1 and the “∆Tm” value (full-length mouse CNPase [3]) was 9.2 °C.

B6: MaBP-8D (NbCNP 8D fusion with the intact His6-MaBP) (VHH)
VHH: EVQLEESGGGLVQPGGSLRLSCAASGFTFSSYVMSWVRQAPGKGLEWVSDINSGGSRTYYTDSVKGRFTISRDNAKNTLYLQMNSLKPEDTAVYYCARDSLLSTRYLHTSERGQGTQVTVSS
With B6 the Kd [2] was 0.2 nM, the dH [2] was -11 kcal/mol and the stoichiometry N [2] was 0.837. It also gave a stoichiometry N [5] of 1.

B7: iNbCNP 8D fused to mRuby3 (VHH)
VHH: EVQLEESGGGLVQPGGSLRLSCAASGFTFSSYVMSWVRQAPGKGLEWVSDINSGGSRTYYTDSVKGRFTISRDNAKNTLYLQMNSLKPEDTAVYYCARDSLLSTRYLHTSERGQGTQVTVSS
notes: VHH of NbCNP 8D; also called NbCNP‐8D‐mRuby3; source: COS-7, co-transfected, in cells; not shown: mRuby3, C-terminal, kept
B7: binds [4].

B8: anti-CNPase nanobody NbCNP 8D (VHH)
VHH: EVQLEESGGGLVQPGGSLRLSCAASGFTFSSYVMSWVRQAPGKGLEWVSDINSGGSRTYYTDSVKGRFTISRDNAKNTLYLQMNSLKPEDTAVYYCARDSLLSTRYLHTSERGQGTQVTVSS
notes: this construct has a short, extended tail; The batch from the His14-bdSUMO system was used for structural work; also called Nb 8D; source: E. coli SHuffle Express, His14-bdSUMO fusion, purified (Ni2+ beads, eluted by bdSENP1 cleavage)
In the case of B8, the “∆Tm” value (full-length mouse CNPase [6]) is reported as 17.7 °C, the Kd [2] is reported as 2.5 nM and the dH [2] is reported as -11 kcal/mol. For the same binder, the stoichiometry N [2] was 0.8, the stoichiometry N [5] was 1 and the “∆Tm” value (full-length mouse CNPase [3]) was 18 °C.

B9: anti-CNPase nanobody NbCNP 5E (VHH)
VHH: EVQLLESGGGSVQAGGSLRLSCAASGFTVGDYAIGWFRQAPGQQREAVACISTDDGDTYYADSVKGRFTISSDNAKKTAYLEMNNLKPEDTAVYHCAVDGWDSSCTFYSPSYYRDFSDHGAWGQGTQVTVSS
notes: Extra disulphide between CDR2 and CDR3; also called Nb5E; source: E. coli Shuffle T7, His6-MaBP fusion (pHMGWA), purified (NiNTA, TEV, reverse NiNTA, SEC); not shown: His6, N-terminal, cleaved
B9 was tested, and the Kd [2] was 2.2 nM, the dH [2] was -13.8 kcal/mol and the stoichiometry N [2] was 0.82. The stoichiometry N [5] was 1 and the “∆Tm” value (full-length mouse CNPase [3]) was 17 °C.

B10: iNbCNP 5E fused to mRuby3 (VHH)
VHH: EVQLLESGGGSVQAGGSLRLSCAASGFTVGDYAIGWFRQAPGQQREAVACISTDDGDTYYADSVKGRFTISSDNAKKTAYLEMNNLKPEDTAVYHCAVDGWDSSCTFYSPSYYRDFSDHGAWGQGTQVTVSS
notes: as the VHH of m5; also called NbCNP 5E-mRuby3; source: COS-7, co-transfected, in cells; not shown: mRuby3, C-terminal, kept
B10: binds [4].
